In assay [1] the target is extracellular domain of EpCAM (EpCAM ECD) (UniProt P16422). The assay can be described thus: fluorescence increase of the DARPin-SiP conjugate on adding the antigen (plate reader); probe pretreated with DTT; probe 500 nM, EpCAM ECD 1 uM.
For assay [2] the target is unchanged. The assay can be described thus: other fluorescence titration; Kd of the probe for EpCAM ECD calculated from the increase of SiP fluorescence (Figure S10).
Assay [3] shares this target. Briefly: fluorescence increase of the DARPin-SiP conjugate on adding the antigen (plate reader); conjugate 500 nM (not pretreated with DTT), EpCAM ECD 1 uM; fold activation = fluorescence at 31 min divided by that just before EpCAM ECD.

In general, Kd refers to the concentration at which binding is half-saturated.

UniProt P16422, sequence (P16422 24-265): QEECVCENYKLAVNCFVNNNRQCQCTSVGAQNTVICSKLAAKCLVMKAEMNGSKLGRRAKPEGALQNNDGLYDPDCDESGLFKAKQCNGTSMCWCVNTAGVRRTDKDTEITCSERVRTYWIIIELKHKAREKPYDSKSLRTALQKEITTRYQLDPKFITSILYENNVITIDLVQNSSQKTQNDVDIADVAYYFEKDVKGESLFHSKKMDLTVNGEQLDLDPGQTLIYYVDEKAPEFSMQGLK

For “Ec1 K152C-5-Gly SiP conjugate (designed binder)”, in assay [1], the fold activation of SiP fluorescence on adding EpCAM ECD is over 12 fold. The Kd in assay [2] was 238 nM. For the same substance, the fold increase of SiP fluorescence on adding EpCAM ECD in assay [3] is 7 fold.

These data come from article PMC12396215.
